Experimental data reported in patent publication US20150297680A1.

Molecular target: human serum albumin (HSA) (human) (UniProt P02768)
Experiment: HSA-coupled agarose beads, washed with PBS, fluorescence plate reader (ex 480 nm, em 510 nm)

UniProt P02768, sequence (P02768 25-609 limits assumed): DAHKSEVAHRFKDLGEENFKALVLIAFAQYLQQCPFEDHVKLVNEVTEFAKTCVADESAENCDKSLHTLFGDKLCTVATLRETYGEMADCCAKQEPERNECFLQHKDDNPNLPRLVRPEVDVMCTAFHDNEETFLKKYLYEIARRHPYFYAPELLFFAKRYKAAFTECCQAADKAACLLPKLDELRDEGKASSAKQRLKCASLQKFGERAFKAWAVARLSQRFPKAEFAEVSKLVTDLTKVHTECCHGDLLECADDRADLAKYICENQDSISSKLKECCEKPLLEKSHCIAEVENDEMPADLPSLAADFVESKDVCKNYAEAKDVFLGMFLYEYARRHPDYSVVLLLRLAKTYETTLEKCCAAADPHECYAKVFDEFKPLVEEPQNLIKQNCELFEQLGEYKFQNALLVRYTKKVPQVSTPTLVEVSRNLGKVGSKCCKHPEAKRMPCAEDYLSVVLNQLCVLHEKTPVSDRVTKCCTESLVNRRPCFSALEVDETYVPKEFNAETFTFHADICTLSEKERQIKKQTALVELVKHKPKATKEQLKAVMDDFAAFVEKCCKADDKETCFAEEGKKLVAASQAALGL

fold fluorescence of HSA-coupled beads against those with sfGFP-WT: 20 fold
Substance: palmitic acid-conjugated superfolder green fluorescent protein (sfGFP-Pal)
